These results are taken from paper doi:10.1101/2022.04.29.490041.

In the experiment the target is NSF_(E326Q):GFP (dominant-negative variant of NSF, GFP-tagged) (Arabidopsis thaliana) (UniProt Q9M0Y8). The experiment in a line: co-IP.
UniProt Q9M0Y8, sequence (Q9M0Y8 whole entry E326Q): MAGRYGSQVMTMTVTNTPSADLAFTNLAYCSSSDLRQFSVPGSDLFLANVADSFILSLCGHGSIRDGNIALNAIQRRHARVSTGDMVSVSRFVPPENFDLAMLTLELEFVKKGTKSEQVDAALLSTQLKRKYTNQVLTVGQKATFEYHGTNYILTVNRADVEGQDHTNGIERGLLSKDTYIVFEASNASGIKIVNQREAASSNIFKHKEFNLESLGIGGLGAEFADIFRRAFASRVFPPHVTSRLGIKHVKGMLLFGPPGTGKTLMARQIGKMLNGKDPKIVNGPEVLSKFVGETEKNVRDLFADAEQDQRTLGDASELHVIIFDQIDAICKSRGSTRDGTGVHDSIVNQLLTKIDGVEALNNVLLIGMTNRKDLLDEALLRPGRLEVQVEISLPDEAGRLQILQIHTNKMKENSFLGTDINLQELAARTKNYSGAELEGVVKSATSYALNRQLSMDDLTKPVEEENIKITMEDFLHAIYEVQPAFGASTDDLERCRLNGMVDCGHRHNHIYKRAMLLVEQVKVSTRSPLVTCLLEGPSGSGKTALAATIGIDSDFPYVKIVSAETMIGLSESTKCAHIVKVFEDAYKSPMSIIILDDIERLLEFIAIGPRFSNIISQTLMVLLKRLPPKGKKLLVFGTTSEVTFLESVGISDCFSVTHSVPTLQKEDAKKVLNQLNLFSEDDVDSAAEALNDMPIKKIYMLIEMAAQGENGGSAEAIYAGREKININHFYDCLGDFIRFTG

In the case of “KNOLLE (cytokinesis-specific Qa-SNARE) (natural protein)”, the fold increase of co-precipitation relative to wild-type NSF turned out to be 38 fold.
